Results from patent publication US20260174847A1, “METHODS OF TREATING DIGESTIVE DISEASES AND COMPOSITIONS THEREOF” (PTM Therapeutics, Inc., priority 2023, published 2026).

Columns and labels:
[1] = SPR (Biocore T100) binding affinity to sLeA; conditions: Example 3, Table 7, mean
Protocol: (§1) An in vitro evaluation of the binding affinity to sLeA and sLeC of the humanized antibodies from Example 1 were performed using a Biocore T100 SPR biosensor using a CM7 sensor chip with PBS-p (0.005% Tween-20) running buffer at 25 degrees Celsius. The antibodies were couples to ˜30,000 RU at 50 ug/ml in 10 mM NaAcetate pH 5.0 over an NHS/EDC activated surface. A reference surface was activated and blocked to serve as a control. Carbohydrate samples (sLeA, sLeC and sialyl Lewis X (all from Dextra Labs)) were dissolved in PBS-p running buffer up to a stock concentration of 10 mM. Each was then prepared in a 2-fold dilution series up to 300 μM and each concentration series was tested over the antibody surfaces. Response data were processed by subtracting the responses from the reference surfaces as well as a buffer injection. Binding constants were determined at 25 degrees Celsius.
(§2) Seven of the humanized antibody clones from Example 1 were tested for binding affinity to sLeA, sLeC and […]. Methods used were similar to those described in Example 2 above, except with sLeX only at one concentration of 300 μM.

[2] = SPR (Biocore T100) binding affinity to sLeC; conditions: Example 3, Table 7, mean
Protocol: as §1, §2

| Kd [1] [µM] | Kd [2] [µM] | Molecule |
| --- | --- | --- |
| 69.1 | 93.2 | Clone 4770: Humanized IgG1 antibody, heavy chain variable region HvCh3 (SEQ ID NO: 3), light chain LiCh2 (SEQ ID NO: 6) (antibody, V domains shown) VH: EVQLVESGGGLVQPGGSLRLSCAASGFTFSTNAMSWVRQAPGKGLEWVARLRPKSDNYATYYADSVKGRFTISRDDSKNTLYLQMNSLRAEDTAVYYCVTGTGFWGQGTTLTVSS VL: DIVMTQSPDSLAVSLGERVTMNCKSSQSLLNSGNQKNYLTWYQQKPGQPPKLLIYWTSTRESGVPDRFSGSGSGTDFTLTISSVQAEDVAVYYCQNDYTSPYTFGQGTKLEIK |
| 552 | 460 | Clone 4768: Humanized IgG1 antibody, heavy chain variable region HvCh2 (SEQ ID NO: 2), light chain LiCh4 (SEQ ID NO: 8) (antibody, V domains shown) VH: EVQLVESGGGLVQPGGSLRLSCAASGFTFSTNAMSWVRQAPGKGLEWVARLRPKSDNYATYYADSVKGRFTISRDNSKNTLYLQMNSLRAEDTAVYYCVTGTGFWGQGTTLTVSS VL: DIVMTQSPDSLAVSLGERVTMNCKSSQSLLNSGNQKNYLTWYQQKPGQPPKLLFYWTSTRESGVPDRFSGSGSGTDFTLTISSVQAEDVAVYYCQNDYTSPYTFGQGTKLEIK |
| 48.3 | 77.1 | Clone 4772: Humanized IgG1 antibody, heavy chain variable region HvCh3 (SEQ ID NO: 3), light chain LiCh4 (SEQ ID NO: 8) (antibody, V domains shown) VH: EVQLVESGGGLVQPGGSLRLSCAASGFTFSTNAMSWVRQAPGKGLEWVARLRPKSDNYATYYADSVKGRFTISRDDSKNTLYLQMNSLRAEDTAVYYCVTGTGFWGQGTTLTVSS VL: DIVMTQSPDSLAVSLGERVTMNCKSSQSLLNSGNQKNYLTWYQQKPGQPPKLLFYWTSTRESGVPDRFSGSGSGTDFTLTISSVQAEDVAVYYCQNDYTSPYTFGQGTKLEIK |
| 81.3 | 104 | Clone 4769: Humanized IgG1 antibody, heavy chain variable region HvCh3 (SEQ ID NO: 3), light chain LiCh1 (SEQ ID NO: 5) (antibody, V domains shown) VH: EVQLVESGGGLVQPGGSLRLSCAASGFTFSTNAMSWVRQAPGKGLEWVARLRPKSDNYATYYADSVKGRFTISRDDSKNTLYLQMNSLRAEDTAVYYCVTGTGFWGQGTTLTVSS VL: DIVMTQSPDSLAVSLGERATINCKSSQSLLNSGNQKNYLTWYQQKPGQPPKLLIYWTSTRESGVPDRFSGSGSGTDFTLTISSLQAEDVAVYYCQNDYTSPYTFGQGTKLEIK |
| 732 | 306 | Clone 4765: Humanized IgG1 antibody, heavy chain variable region HvCh2 (SEQ ID NO: 2), light chain LiCh1 (SEQ ID NO: 5) (antibody, V domains shown) VH: EVQLVESGGGLVQPGGSLRLSCAASGFTFSTNAMSWVRQAPGKGLEWVARLRPKSDNYATYYADSVKGRFTISRDNSKNTLYLQMNSLRAEDTAVYYCVTGTGFWGQGTTLTVSS VL: DIVMTQSPDSLAVSLGERATINCKSSQSLLNSGNQKNYLTWYQQKPGQPPKLLIYWTSTRESGVPDRFSGSGSGTDFTLTISSLQAEDVAVYYCQNDYTSPYTFGQGTKLEIK |
| 621 | 538 | Clone 4766: Humanized IgG1 antibody, heavy chain variable region HvCh2 (SEQ ID NO: 2), light chain LiCh2 (SEQ ID NO: 6) (antibody, V domains shown) VH: EVQLVESGGGLVQPGGSLRLSCAASGFTFSTNAMSWVRQAPGKGLEWVARLRPKSDNYATYYADSVKGRFTISRDNSKNTLYLQMNSLRAEDTAVYYCVTGTGFWGQGTTLTVSS VL: DIVMTQSPDSLAVSLGERVTMNCKSSQSLLNSGNQKNYLTWYQQKPGQPPKLLIYWTSTRESGVPDRFSGSGSGTDFTLTISSVQAEDVAVYYCQNDYTSPYTFGQGTKLEIK |
| 59.2 | 85.4 | Clone 4771: Humanized IgG1 antibody, heavy chain variable region HvCh3 (SEQ ID NO: 3), light chain LiCh3 (SEQ ID NO: 7) (antibody, V domains shown) VH: EVQLVESGGGLVQPGGSLRLSCAASGFTFSTNAMSWVRQAPGKGLEWVARLRPKSDNYATYYADSVKGRFTISRDDSKNTLYLQMNSLRAEDTAVYYCVTGTGFWGQGTTLTVSS VL: DIVMTQSPDSLAVSLGERATINCKSSQSLLNSGNQKNYLTWYQQKPGQPPKLLFYWTSTRESGVPDRFSGSGSGTDFTLTISSLQAEDVAVYYCQNDYTSPYTFGQGTKLEIK |
